Patent publication US20260062479A1

B1: parent antibody (murine anti-TIRC7 antibody 17-20, cAb1457) (antibody, V domains shown)
VH: QVQLKQSGPELVKPGASVKMSCKASGYTFTTYVMHWVKQKPGQGLEWIGYINPYNDGTNYNEKFKGKATLTSDKSSSTAYMELSTLTSEDSAVYYCAEFITKTVGGSNWYLDVWGAGTTVTVSS
VL: DIVLTQSPAIMSASPGEKVTMTCSASSSISYIHWFQQKPGTSPKRWIYDTSKLPSGVPARFSGSGSGTSYSLTISSMEAEDAATYYCHQRSSYTWTFGGGTKLEIK
B2: cAB1467-10.0 (antibody, V domains shown)
VH: QVQLVQSGAEVKKPGASVKVSCKASGYTFTTYVMHWVRQAPGKGLEWMGYINPYNDGTNYNEKFKGRVTLTSDKSTSTAYMELSSLRSEDTAVYYCAEFITKTVGGSNWYLDVWGQGTTVTVSS
VL: DIQLTQSPSFLSASVGDRVTITCSASSSISYIHWFQQKPGKAPKRWIYDTSKLPSGVPSRFSGSGSGTEYTLTISSLQPEDFATYYCHQRSSYTWTFGGGTKLEIK
B3: cAB1459-10.0 (antibody, V domains shown)
VH: QVQLVQSGAEVKKPGASVKVSCKASGYTFTTYVMHWVRQAPGKGLEWMGYINPYNDGTNYNEKFKGRVTMTEDTSTDTAYMELSSLRSEDTAVYYCAEFITKTVGGSNWYLDVWGQGTTVTVSS
VL: DIQLTQSPSFLSASVGDRVTITCSASSSISYIHWFQQKPGKAPKRWIYDTSKLPSGVPSRFSGSGSGTEYTLTISSLQPEDFATYYCHQRSSYTWTFGGGTKLEIK
B4: cAB1468-10.0 (antibody, V domains shown)
VH: QVQLVQSGAEVKKPGASVKVSCKASGYTFTTYVMHWVRQAPGKGLEWMGYINPYNDGTNYNEKFKGRVTLTSDKSTSTAYMELSSLRSEDTAVYYCAEFITKTVGGSNWYLDVWGQGTTVTVSS
VL: EIVLTQSPATLSLSPGERATLSCSASSSISYIHWYQQKPGQAPRRLIYDTSKLPSGIPARFSGSGSGTDFTLTISSLEPEDFAVYYCHQRSSYTWTFGGGTKLEIK

Biological target: largest TIRC7 extracellular domain (T-cell immune response cDNA 7) (human) (UniProt Q13488)
Test: SPR, Biacore T200, 25 C, TIRC7 domain immobilized on CM5 chip, 1:1 kinetic fit

Kd [nM]	koff [s⁻¹]	kon [M⁻¹ s⁻¹]	Binder
0.3	0.00013	520000	B1
		1.24e+06	B2
		3.56e+06	B3
		1.13e+06	B4
